Molecular target: H. pylori PflB_(Δ140), the periplasmic α-helical domain of paralyzed flagellum protein B (Helicobacter pylori (strain SS1))
Experiment: SEC; Superdex 200 10/300 GL, 20 mM Tris-HCl pH 8.0, 150 mM NaCl, 10% glycerol, 4 CMC LDAO; mass from a calibration with globular standards

Substance: H. pylori PflB_(Δ140), the periplasmic α-helical domain of paralyzed flagellum protein B (domain or fragment)
- stoichiometry N: > 4
